We go through 1 substance from paper PMC7069805.

The test has as its target MD39 stabilized gp140 HIV Env trimer (HIV). In words: SEC-MALS.

Regarding “MD39 stabilized gp140 HIV Env trimer (domain or fragment)”, the stoichiometry N (usually a count of units in the complex or per binding partner) was 3.
